Laboratory results reported in patent US20120093811A1 (published 2012).

T1: VEGF-D (recombinant human; source not given) (human, UniProt O43915 89-205, limits assumed)
T1 construct: also used here as target of IC50 values averaged over Source 1 and Source 2; also called vascular endothelial growth factor-D
T1 sequence: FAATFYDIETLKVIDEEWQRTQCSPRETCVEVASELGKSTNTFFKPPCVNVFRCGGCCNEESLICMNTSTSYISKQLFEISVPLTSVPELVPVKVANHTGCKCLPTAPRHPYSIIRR

B1: scFv clone AA16 (scFv)
scFv: QAQLVQSGAEVKQPGASVKVSCKASGYTFTGYNMYWVRQAPGQGLEWMGYIDPYNGDTTYNQKFKGRVTMTTDTSTSTAYMELRSLRSDDTAVYYCARTSYYGGMDYWGRGTLVTVASGGGASGGGGSGGGGSDIVMTQTPLSSPVTLGQPASISCRSSQSLVHSNGNTYLHWLQQRPGQPPRLLIYKVSNRFSGVPDRFSGSGAGTDFTLKISRVEAEDVGVYYCSQSTHVPRTFGQGTKLEIKR
B2: scFv clone BF36 (scFv)
scFv: QVQLVQSGAEVKQPGASVKVSCKASGYTFTGYNMYWVRQAPGQGLEWMGYIDPYNGDTTYNQRFKGRVTMTTDTSTSTAYMKLRSLRSDDTAVYYCARTSYYGGMDYWGRGALVTVASGGGASGGGGSGGGGSDIVMTQTPLSSPVTLGQPASISCRSSQSLVHSNGNTYLHWLQQRPGQPPRLLIYKVSNRFSGVPDRFSGSGAGTDFTLRISRVEAEDVGVYYCSQSTHVPRTFGQGTKLEIKR
B3: scFv clone CI67 (scFv)
scFv: QVQLVQSGAEVKQPGASVKVSCKASGYTFTGYNMYWVRQAPGQGLEWMGYIDPYNGDTTYNQKFKGRATMTTDTSTSTAYMKLRSLRSDDTAVYYCARTSYYGGMDYWGRGTLVTVASGGGASGGGGSGGGGSDIVMTQTPLSSPVTLGQPASISCRSSQSLVHSNGNTYLHWLQQRPGQPPRLLIYKVSNRFSGVPDRFSGSGAGTDFTLKISRVEAEDVGVYYCSQSAHVPRTFGQGTKLEIKR
B4: scFv clone CJ17 (scFv)
scFv: QVQLVQSGAEVKQPGASVKVSCEASGYTFTGYNMYWVRQAPGQGLEWMGYIDPYNGDTTYNQKFKGRVTMTTDTSTSTAYMKLRSLRSDDTAVYYCARTSYYGGMDYWGRGTLVTVASGGGASGGGGSGGGGSDIVMTQTPLSSPVTLGQPASISCRSSQSLVHSNGNTYLHWLQQRPGQPPRLLIYKVSNRFSGVPDRFSGSGAGTDFTLKISRVEAEDVGVYYCSQSTHVPRTFGQGTKLEIKR
B5: scFv clone CZ13 (scFv)
scFv: QVQLAQSGAKVKQPGASVKASCKASGYTFTGYNMYWVRQAPGQGLEWMGYIDPYNGDTTYNQKFKGRVTMTTDTSTSTAYMELRSLRSDDTAVYYCARTSYYGGMDYWGRGTLVTVASGGGASGGGGSGGGGSDIVMTQTPLSSPVTLGQPASISCRSSQSLVHSNGNTYLHWLQQRPGQPPRLLIYKVSNRFSGVPDRFSGSGAGTDFTLKISRVEAEDVGVYYCSQSTHVPRTFGQGTKLEIKR
B6: scFv clone AC75 (scFv)
scFv: QVQLVQSGAEVKQPGASVKVSCKASGYTFTGYNMYWVRQAPGQGLEWMGYIDPYNGDTTYNQKFKGRVTMTTDTSTSTAYVELRSLRSDDTAVYYCARTSYYGGMDYWGRGTLVTVASGGGASGGGGSGGGGSDIVMTQTPLSSPVTLGQPASISCRSSQSLVHSNGNTYLHWLQQRPGQPPRLLIYKVSNRFSGVPDRFSGSGAGTDFTLKISRVEAEDVGVYYCSQSTHVPRTFGQGTKLEIKR
B7: scFv clone DA74 (scFv)
scFv: QVQLAQSGAKVKQPGASVKASCKASGYTFTGYNMYWVRQAPGQGLEWMGYIDPYNGDTTYNQKFKGRVTMTTDTSTSTAYMELRSLRSDDTAVYYCARTSYYGGMDYWGRGTLVTVASGGGASGGGGSGGGGSDIVMTQTPLSSPVTLGQPASISCRSSQSLVHSNGNTYLHWLQQRPGQPPRLLIYKVSNRSSGVPDRFSGSGAGTDFTLKISRVEAEDVGVYYCSQSTHVPRTFGQGTKLEIKR
B8: scFv clone DC56 (scFv)
scFv: QVQLVQSGAKVRQPGASVKASCKASGYTFTGYNMYWVRQAPGQGLEWMGYIDPYNGDTTYNQKFKGRVTMTTDTSTSTAYMELRSLRSDDTAVYYCARTSYYGGMDYWGRGTLVTVASGGGASGGGGSGGGGSDIVMTQTPLSSPVTLGQPASISCRSSQSLVHSNGNTYLHWLQQRPGQPPRLLIYKVSNRFSGVPDRFSGSGAGTDFTLKISRVEAEDVGVYYCSQSTHVPRTFGQGTKLEIKR
B9: scFv clone CW16 (scFv)
scFv: QVQLVQSGAEVKQPGASVKVSCKASGYTFTGYNMYWVRQAPGQGLEWMGYIDPYNGDTTYNQKFKGRVTMTTDTSTSTAYMELRSLRSGDTAVYYCARTSYYGGMDYWGRGTLVTVASGGGASGGGGSGGGGSDIVMTQTPLSSPATLGQPASISCRSSQSLVHSNGNTYLHWLQQRPGQPPRLLIYKVSNRFSGVPDRFSGSGAGTDFTLKISRVEAEDVGVYYCSQSTHVPRTFGQGTKLEIKR
B10: scFv clone DB29 (scFv)
scFv: QVQLVQSGAKVKQPGASVKASCKASGYTFTGYNMYWVRQAPGQGLEWMGYIDPYNGDTTYNQKFKGRVTMTTDTSTSTAYMELRSLRSDDTAVYYCARTSYYGGMDYWGRGTLVTVASGGGASGGGGSGGGGSDIVMTQTPLSGPVTLGQPASISCRSSQSLVHSNGNTYLHWLQQRPGQPPRLLIYKVSNRFSGVPDRFSGSGAGTDFTLKISRVEAEDVGVYYCSQSTHVPRTFGQGTKLEIKR
B11: scFv clone CZ77 (scFv)
scFv: QVQLVQSGAKVKQPGASVKASCKASGYTFTGYNMYWVRQAPGQGLEWMGYIDPYNGDTTYNQKFRGRVTMTTDTSTSTAYMELRSLRSDDTAVYYCARTSYYGGMDYWGRGTLVTVASGGGASGGGGSGGGGSDIVMTQTPLSSPVTLGQPASISCRSSQSLVHSNGNTYLHWLQQRPGQPPRLLIYKVSNRFSGVPDRFSGSGAGTDFTLKISRVEAEDVGVYYCSQSTHVPRTFGQGTKLEIKR
B12: scFv clone CK61 (scFv)
scFv: QVQLVQSGAKVKQPGASVKVSCKASGYTFTGYNMYWVRQAPGQGLEWMGYIDPYNGDTTYNQKFKGRVTMTTDTSTSTAYMKLRSLRSDDTAVYYCARTSYYGGMDYWGRGTLVTVASGGGASGGGGSGGGGSDIVMTQTPLSSPVTLGQPASISCRSSQSLVHSNGNTYLHWLQQRPGQPPRLLIYKVSNRFSGVPDRFSGSGAGTDFTLKISRVEAEDVGVYYCSQSTHVPRTFGQGTKLEIKR
B13: scFv clone CZ24 (scFv)
scFv: QVQLVQSGAKVKQPGANVKASCKASGYTFTGYNMYWVRQAPGQGLEWMGYIDPYNGDTTYNQKFKGRVTMTTDTSTSTAYMELRSLRSDDTAVYYCARTSYYGGMDYWGRGTLVTVASGGGASGGGGSGGGGSDIVMTQTPLSSPVTLGQPASISCRSSQSLVHSNGNTYLHWLQQRPGQPPRLLIYKVSNRFSGVPDRFSGSGAGTDFTLKISRVEAEDVGVYYCSQSTHVPRTFGQGTKLEIKR
B14: scFv clone D69 (scFv)
scFv: QVQLVQSGAEVKQPGASVKVSCKASGYTFTGYNMYWVRQAPGQGLEWMGYIDPYNGDTTYNQKFKGRVTMTTDTSTSTAYMELRSLRSDDTAVYHCARTSYYGGMDYWGRGTLVTVASGGGASGGGGSGGGGSDIVMTQTPLSSPVTLGQPASISCRSSQSLVHSNGNTYLHWLQQRPGQPPRLLIYKVSNRFSGVPGRFSGSGAGTDFTLKISRVEAEDVGVYYCSQSTHVPRTFGQGTKLEIKR
B15: scFv clone CX03 (scFv)
scFv: QVQLVQSGAEVKQPGASVTVSCKASGYTFTGYNMYWVRQAPGQGLEWMGYIDPYNGDTTYNQKFKGRVTMTTDTSTSTAYMELRSLRSDDTAVYYCARTSYYGGMDYWGRGTLVTVASGGGASGGGGSGGGGSDIVMTQTPLSSPVTLGQPASISCRSSQSLVHSNGNTYLHWLQQRPGQPPRLLIYKVSNRFSGVPGRFSGSGAGTDFTLKISRVEAEDVGVYYCSQSTHVPRTFGQGTKLEIKR

These binders were tested against T1, VEGF-D (recombinant human; source not …) (assay: SPR (BIAcore) off-rate ranking of scFv clones).
Description: Screening based on scFv binding properties involved surface plasmon resonance (SPR) measurements with a BIAcore™ biosensor. scFv variants were expressed in 200 μL E. coli cultures and the supernatants used to generate crude off-rate only kinetics, which were assessed “relative” to 1A, or other variants.
In the case of B1, the koff is reported as 0.00795 s⁻¹.
B2 showed a koff of 0.00362 s⁻¹.
B3 gave a koff of 0.00379 s⁻¹.
In the case of B4, the koff is reported as 0.00291 s⁻¹.
B5 gave a koff of 0.00826 s⁻¹.
B6 showed a koff of 0.00637 s⁻¹.
B7 showed a koff of 0.00424 s⁻¹.
For B8, the koff was 0.00723 s⁻¹.
B9 was tested, and the koff was 0.00726 s⁻¹.
Work on B10 yielded a koff of 0.00575 s⁻¹.
B11 gave a koff of 0.00408 s⁻¹.
With B12 the koff was 0.00522 s⁻¹.
B13 was tested, and the koff was 0.00759 s⁻¹.
B14 was tested, and the koff was 0.00341 s⁻¹.
For B15, the koff was 0.00739 s⁻¹.
